The supplement of paper PMC11908140

B1: library; numbered along this chain (parent)
chain: MRKPRAAVGSGHRKQAASQEGRQKHAKNNSQAKPSACDGLARQPEEVVLQASVSSYHLFRDVAEVTAFRGSLLSWYDQEKRDLPWRRRAEDEMDLDRRAYAVWVSEVMLQQTQVATVINYYTGWMQKWPTLQDLASASLEEVNQLWAGLGYYSRGRRLQEGARKVVEELGGHMPRTAETLQQLLPGVGRYTAGAIASIAFGQATGVVDGNVARVLCRVRAIGADPSSTLVSQQLWGLAQQLVDPARPGDFNQAAMELGATVCTPQRPLCSQCPVESLCRARQRVEQEQLLASGSLSGSPDVEECAPNTGQCHLCLPPSEPWDQTLGVVNFPRKASRKPPREESSATCVLEQPGALGAQILLVQRPNSGLLAGLWEFPSVTWEPSEQLQRKALLQELQRWAGPLPATHLRHLGEVVHTFSHIKLTYQVYGLALEGQTPVTTVPPGARWLTQEEFHTAAVSTAMKKVFRVYQGQQPGTCMGSKRSQVSSPCSRKKPRMGQQVLDNFFRSHISTDAHSLNSAAQ

Variants of: B1
Assay: 8OG:A repair function score (normalized; synonymous = 0, nonsense = -1) (normalized log-likelihood score); higher = more repair activity (WT-like)
Conditions: with 8OG:A DNA repair reporter (GFP) in HEK-293 MUTYH KO cells
Method in brief: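 After 72 h, viable mCherry+ cells were split into GFP+ (repair) and GFP− bins in three replicates per tile. These cells were MUTYH knockout HEK-293 cells holding lentiviral MUTYH cDNA NNN codon-scan libraries, kept in 10 pg/ml doxycycline and co-transfected with mCherry plus an 8OG:A GFP repair reporter. Sequencing of tile amplicons gave per-tile Rosace fitness scores, normalized into a repair function score anchored on synonymous and nonsense distributions. Synonymous medians were fixed at 0, nonsense at -1, and variants under 300 counts per million at the start were removed.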
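Further: cells sorted at 72 h after reporter transfection.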

Variant	8OG:A repair function score
MRKPRAAVGSGHRKQAASQEGRQKHAKNNSQAKPSACDGLARQPEEVVLQASVSSYHLFRDVAEVTAFRGSLLSWYDQEKRDLPWRRRAEDEMDLDRRAYAVWVSEVMLQQTQVATVINYYTGWMQKWPTLQDLASASLEEVNQLWAGLGYYSRGRRLQEGARKVVEELGGHMPRTAETLQQLLPGVGRYTAGAIASIAFGQATGVVDGNVARVLCRVRAIGADPSSTLVSQQLWGLAQQLVDPARPGDFNQAAMELGATVCTPQRPLCSQCPVESLCRARQRVEQEQLLASGSLSGSPDVEECAPNTGQCHLCLPPSEPWDQTLGVVNFPRKASRKPPREESSATCVLEQPGALGAQILLVQRPNSGLLAGLWEFPSVTWEPSEQLQRKALLQELQRWAGPLPATHLRHLGEVVHTFSHIKLTYQVYGLALEGQTPVTTVPPGARWLTQEEFHTAAVSTAMKKVFRVYQGQQPGTCMGSKRSQVSSPCSRKKPRYGQQVLDNFFRSHISTDAHSLNSAAQ [M496Y]	0.00737
MRKPRAAVGSGHRKQAASQEGRQKHAKNNSQAKPSACDGLARQPEEVVLQASVSSYHLFRDVAEVTAFRGSLLSWYDQEKRDLPWRRRAEDEMDLDRRAYAVWVSEVMLQQTQVATVINYYTGWMQKWPTLQDLASASLEEVNQLWAGLGYYSRGRRLQEGARKVVEELGGHMPRTAETLQQLLPGVGRYTAGAIASIAFGQATGVVDGNVARVLCRVRAIGADPSSTLVSQQLWGLAQQLVDPARPGDFNQAAMELGATVCTPQRPLCSQCPVESLCRARQRVEQEQLLASGSLSGSPDVEECAPNTGQCHLCLPPSEPWDQTLGVVNFPRKASRKPPREESSATCVLEQPGALGAQILLVQRPNSGLLAGLWEFPSVTWEPSEQLQRKALLQELQRWAGPLPATHLRHLGEVVHTFSHIKLTYQVYGLALEGQTPVTTVPPGARWLTQEEFHTAAVSTAMKKVFRVYQGQQPGTCMGSKRSQVSSPCSRKKPRWGQQVLDNFFRSHISTDAHSLNSAAQ [M496W]	-0.045
MRKPRAAVGSGHRKQAASQEGRQKHAKNNSQAKPSACDGLARQPEEVVLQASVSSYHLFRDVAEVTAFRGSLLSWYDQEKRDLPWRRRAEDEMDLDRRAYAVWVSEVMLQQTQVATVINYYTGWMQKWPTLQDLASASLEEVNQLWAGLGYYSRGRRLQEGARKVVEELGGHMPRTAETLQQLLPGVGRYTAGAIASIAFGQATGVVDGNVARVLCRVRAIGADPSSTLVSQQLWGLAQQLVDPARPGDFNQAAMELGATVCTPQRPLCSQCPVESLCRARQRVEQEQLLASGSLSGSPDVEECAPNTGQCHLCLPPSEPWDQTLGVVNFPRKASRKPPREESSATCVLEQPGALGAQILLVQRPNSGLLAGLWEFPSVTWEPSEQLQRKALLQELQRWAGPLPATHLRHLGEVVHTFSHIKLTYQVYGLALEGQTPVTTVPPGARWLTQEEFHTAAVSTAMKKVFRVYQGQQPGTCMGSKRSQVSSPCSRKKPRVGQQVLDNFFRSHISTDAHSLNSAAQ [M496V]	-0.0328
MRKPRAAVGSGHRKQAASQEGRQKHAKNNSQAKPSACDGLARQPEEVVLQASVSSYHLFRDVAEVTAFRGSLLSWYDQEKRDLPWRRRAEDEMDLDRRAYAVWVSEVMLQQTQVATVINYYTGWMQKWPTLQDLASASLEEVNQLWAGLGYYSRGRRLQEGARKVVEELGGHMPRTAETLQQLLPGVGRYTAGAIASIAFGQATGVVDGNVARVLCRVRAIGADPSSTLVSQQLWGLAQQLVDPARPGDFNQAAMELGATVCTPQRPLCSQCPVESLCRARQRVEQEQLLASGSLSGSPDVEECAPNTGQCHLCLPPSEPWDQTLGVVNFPRKASRKPPREESSATCVLEQPGALGAQILLVQRPNSGLLAGLWEFPSVTWEPSEQLQRKALLQELQRWAGPLPATHLRHLGEVVHTFSHIKLTYQVYGLALEGQTPVTTVPPGARWLTQEEFHTAAVSTAMKKVFRVYQGQQPGTCMGSKRSQVSSPCSRKKPRMCQQVLDNFFRSHISTDAHSLNSAAQ [G497C]	-0.127
MRKPRAAVGSGHRKQAASQEGRQKHAKNNSQAKPSACDGLARQPEEVVLQASVSSYHLFRDVAEVTAFRGSLLSWYDQEKRDLPWRRRAEDEMDLDRRAYAVWVSEVMLQQTQVATVINYYTGWMQKWPTLQDLASASLEEVNQLWAGLGYYSRGRRLQEGARKVVEELGGHMPRTAETLQQLLPGVGRYTAGAIASIAFGQATGVVDGNVARVLCRVRAIGADPSSTLVSQQLWGLAQQLVDPARPGDFNQAAMELGATVCTPQRPLCSQCPVESLCRARQRVEQEQLLASGSLSGSPDVEECAPNTGQCHLCLPPSEPWDQTLGVVNFPRKASRKPPREESSATCVLEQPGALGAQILLVQRPNSGLLAGLWEFPSVTWEPSEQLQRKALLQELQRWAGPLPATHLRHLGEVVHTFSHIKLTYQVYGLALEGQTPVTTVPPGARWLTQEEFHTAAVSTAMKKVFRVYQGQQPGTCMGSKRSQVSSPCSRKKPRMDQQVLDNFFRSHISTDAHSLNSAAQ [G497D]	-0.0474
MRKPRAAVGSGHRKQAASQEGRQKHAKNNSQAKPSACDGLARQPEEVVLQASVSSYHLFRDVAEVTAFRGSLLSWYDQEKRDLPWRRRAEDEMDLDRRAYAVWVSEVMLQQTQVATVINYYTGWMQKWPTLQDLASASLEEVNQLWAGLGYYSRGRRLQEGARKVVEELGGHMPRTAETLQQLLPGVGRYTAGAIASIAFGQATGVVDGNVARVLCRVRAIGADPSSTLVSQQLWGLAQQLVDPARPGDFNQAAMELGATVCTPQRPLCSQCPVESLCRARQRVEQEQLLASGSLSGSPDVEECAPNTGQCHLCLPPSEPWDQTLGVVNFPRKASRKPPREESSATCVLEQPGALGAQILLVQRPNSGLLAGLWEFPSVTWEPSEQLQRKALLQELQRWAGPLPATHLRHLGEVVHTFSHIKLTYQVYGLALEGQTPVTTVPPGARWLTQEEFHTAAVSTAMKKVFRVYQGQQPGTCMGSKRSQVSSPCSRKKPRMAQQVLDNFFRSHISTDAHSLNSAAQ [G497A]	-0.0723
